For one substance, Kd results are on record in paper doi:10.64898/2025.12.19.695307.

The target in this experiment is R1-32 (human). In words: BLI.

For the substance “SARS-CoV-2 Omicron BA.2.11 RBD (from UniProt P0DTC2 332-527) (domain or fragment)”, the Kd was more than 55 nM.
